Assay results as given in US20170253933A1, “COMPOSITIONS AND METHODS FOR TREATING AND DIAGNOSING CHEMOTHERAPY-RESISTANT CANCERS” (Genentech, Inc., priority 2014, published 2017).
Entries after “also recorded” stand apart in the source; their conditions may differ.

Tested on: ES-2 cells
Experiment: Chemotherapy resistance of ES-2 cells on protein-coated plates (Cell-Titre Glo viability, % growth benefit)
Type: cell-based
Excerpt: (A) Increased desmoplasia is correlated with POSTN expression and primary chemotherapy-resistance. Representative high magnification images of hematoxylin and eosin (H&E) staining of tumor specimens (upper panels) and POSTN ISH images (lower panel) are shown. Desmoplasia scores were defined as follows: 0=no desmoplasia, 1=few scattered desmoplastic foci abutting cancer cells, 2=several desmoplastic foci abutting cancer cells or moderate confluent (wider) desmoplasia, but not present throughout the section, 3=desmoplastic reaction throughout section, associated with most cancer cells. Labels: DS=desmoplastic stroma, NS=normal stroma, TC =tumor cells. Arrows point to examples of tumor cells. A dotted line encircles a region containing tumor cells. Size bars, 100 μm. (B) Summary of desmoplasia scores in 21 Plat-S primary, 18 Plat-R primary, and 21 Plat-R recurrent tumor specimens; (C) POSTN promotes chemotherapy-resistance in chemotherapy-sensitive ES2 ovarian cells in vitro. 96-well plates were coated with recombinant protein FN1 or POSTN or left uncoated before cells were plated into each well. 10 μM carboplatin or 10 nM taxol was then added to each well on the next day. Cell-Titre Glo® reagents were added at 72 hours after compound treatment to measure cell viability. The viability in coated wells was then compared with viability in uncoated wells to calculate % growth benefit. […]

B1: POSTN: recombinant full-length POSTN (Cat #3548-F2, R&D Systems) used to coat culture plates (protein, UniProt Q15063 22-836, looked up)
Periostin: NNHYDKILAHSRIRGRDQGPNVCALQQILGTKKKYFSTCKNWYKKSICGQKTTVLYECCPGYMRMEGMKGCPAVLPIDHVYGTLGIVGATTTQRYSDASKLREEIEGKGSFTYFAPSNEAWDNLDSDIRRGLESNVNVELLNALHSHMINKRMLTKDLKNGMIIPSMYNNLGLFINHYPNGVVTVNCARIIHGNQIATNGVVHVIDRVLTQIGTSIQDFIEAEDDLSSFRAAAITSDILEALGRDGHFTLFAPTNEAFEKLPRGVLERIMGDKVASEALMKYHILNTLQCSESIMGGAVFETLEGNTIEIGCDGDSITVNGIKMVNKKDIVTNNGVIHLIDQVLIPDSAKQVIELAGKQQTTFTDLVAQLGLASALRPDGEYTLLAPVNNAFSDDTLSMDQRLLKLILQNHILKVKVGLNELYNGQILETIGGKQLRVFVYRTAVCIENSCMEKGSKQGRNGAIHIFREIIKPAEKSLHEKLKQDKRFSTFLSLLEAADLKELLTQPGDWTLFVPTNDAFKGMTSEEKEILIRDKNALQNIILYHLTPGVFIGKGFEPGVTNILKTTQGSKIFLKEVNDTLLVNELKSKESDIMTTNGVIHVVDKLLYPADTPVGNDQLLEILNKLIKYIQIKFVRGSTFKEIPVTVYTTKIITKVVEPKIKVIEGSLQPIIKTEGPTLTKVKIEGEPEFRLIKEGETITEVIHGEPIIKKYTKIIDGVPVEITEKETREERIITGPEIKYTRISTGGGETEETLKKLLQEEVTKVTKFIEGGDGHLFEDEEIKRLLQGDTPVRKLQANKKVQGSRRRLREGRSQ
cell growth with coating alone (ES-2 cells on coated plates, in the absence of chemotherapy treatment): small increase in cell growth | resistance to carboplatin or paclitaxel treatment (viability in coated wells vs uncoated wells, % growth benefit) (ES-2 ovarian cancer cells on coated plates, 10 μM carboplatin or 10 nM paclitaxel, viability at 72 hours): became resistant to carboplatin and paclitaxel treatment; also recorded: significantly more resistant to carboplatin or paclitaxel treatment
